How the values were obtained:
Settings in all cases: tags: C-terminal GS linker-SV40 NLS
Int11 = Int11 (Clostridium botulinum B str. Eklund 17B); assay: cell_activity; attB x attP EGFP inversion reporter, HEK293FT
Int12 = target: T1, Int12 (Staphylococcus lugdunensis N920143); assay: as above
T1 chain: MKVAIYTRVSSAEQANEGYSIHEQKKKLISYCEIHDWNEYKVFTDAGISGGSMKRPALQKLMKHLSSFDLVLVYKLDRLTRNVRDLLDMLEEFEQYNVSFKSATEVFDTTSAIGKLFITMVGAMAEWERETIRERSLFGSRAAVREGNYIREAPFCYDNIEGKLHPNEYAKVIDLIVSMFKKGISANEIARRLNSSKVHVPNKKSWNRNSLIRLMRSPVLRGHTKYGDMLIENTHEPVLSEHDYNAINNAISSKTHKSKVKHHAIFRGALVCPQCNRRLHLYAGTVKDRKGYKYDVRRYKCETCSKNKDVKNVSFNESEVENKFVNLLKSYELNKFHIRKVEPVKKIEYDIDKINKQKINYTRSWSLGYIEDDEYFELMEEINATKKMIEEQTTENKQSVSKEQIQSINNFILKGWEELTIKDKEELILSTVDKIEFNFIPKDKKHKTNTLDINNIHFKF

Int9 = target: T2, Int9 (Staphylococcus aureus str. Newman); assay: cell_activity
T2 chain: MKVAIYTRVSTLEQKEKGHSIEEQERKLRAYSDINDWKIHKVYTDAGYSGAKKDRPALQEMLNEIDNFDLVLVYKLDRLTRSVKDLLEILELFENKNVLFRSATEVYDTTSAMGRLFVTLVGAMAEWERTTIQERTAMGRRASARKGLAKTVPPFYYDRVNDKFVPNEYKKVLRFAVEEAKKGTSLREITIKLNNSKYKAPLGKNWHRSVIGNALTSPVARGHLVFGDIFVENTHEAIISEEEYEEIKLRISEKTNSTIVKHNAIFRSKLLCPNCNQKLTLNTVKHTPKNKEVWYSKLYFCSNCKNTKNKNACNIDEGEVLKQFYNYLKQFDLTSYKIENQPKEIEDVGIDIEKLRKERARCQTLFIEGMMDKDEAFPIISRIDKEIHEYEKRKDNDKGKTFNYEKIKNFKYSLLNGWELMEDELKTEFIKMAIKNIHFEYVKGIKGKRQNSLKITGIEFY

Int10 = target: T3, Int10 (Streptococcus pneumoniae 670-6B); assay: cell_activity
T3 chain: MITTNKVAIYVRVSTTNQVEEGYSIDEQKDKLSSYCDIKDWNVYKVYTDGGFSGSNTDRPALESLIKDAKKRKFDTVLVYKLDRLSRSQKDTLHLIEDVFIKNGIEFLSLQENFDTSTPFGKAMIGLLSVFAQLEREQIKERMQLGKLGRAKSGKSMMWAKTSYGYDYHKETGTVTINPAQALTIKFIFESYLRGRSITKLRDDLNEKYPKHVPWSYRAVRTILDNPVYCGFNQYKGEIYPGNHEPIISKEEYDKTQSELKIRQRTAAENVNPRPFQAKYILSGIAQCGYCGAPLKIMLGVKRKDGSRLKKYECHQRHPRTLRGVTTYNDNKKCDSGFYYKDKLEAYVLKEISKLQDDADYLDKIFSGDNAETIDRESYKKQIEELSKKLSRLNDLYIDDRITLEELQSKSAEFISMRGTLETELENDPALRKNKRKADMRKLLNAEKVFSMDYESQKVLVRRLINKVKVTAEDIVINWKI

Int3 = target: T4, Int3 (Streptococcus pyogenes M1 GAS (phage …)); assay: cell_activity
T4 chain: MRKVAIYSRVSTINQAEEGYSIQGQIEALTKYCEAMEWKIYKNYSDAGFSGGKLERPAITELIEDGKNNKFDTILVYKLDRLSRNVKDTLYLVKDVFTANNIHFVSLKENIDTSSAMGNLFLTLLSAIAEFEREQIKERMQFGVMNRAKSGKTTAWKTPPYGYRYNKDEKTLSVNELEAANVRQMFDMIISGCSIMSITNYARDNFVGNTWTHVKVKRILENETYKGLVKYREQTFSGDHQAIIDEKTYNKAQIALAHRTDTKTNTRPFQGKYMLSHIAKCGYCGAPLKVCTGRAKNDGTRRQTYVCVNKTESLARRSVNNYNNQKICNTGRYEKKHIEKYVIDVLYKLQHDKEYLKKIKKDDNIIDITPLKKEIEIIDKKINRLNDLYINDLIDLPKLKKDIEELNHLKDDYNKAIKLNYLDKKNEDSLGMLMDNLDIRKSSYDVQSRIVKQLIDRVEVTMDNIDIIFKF

Int8 = target: T5, Int8 (Staphylococcus haemolyticus JCSC1435); assay: cell_activity; attB x attP EGFP inversion reporter, HEK293FT
T5 chain: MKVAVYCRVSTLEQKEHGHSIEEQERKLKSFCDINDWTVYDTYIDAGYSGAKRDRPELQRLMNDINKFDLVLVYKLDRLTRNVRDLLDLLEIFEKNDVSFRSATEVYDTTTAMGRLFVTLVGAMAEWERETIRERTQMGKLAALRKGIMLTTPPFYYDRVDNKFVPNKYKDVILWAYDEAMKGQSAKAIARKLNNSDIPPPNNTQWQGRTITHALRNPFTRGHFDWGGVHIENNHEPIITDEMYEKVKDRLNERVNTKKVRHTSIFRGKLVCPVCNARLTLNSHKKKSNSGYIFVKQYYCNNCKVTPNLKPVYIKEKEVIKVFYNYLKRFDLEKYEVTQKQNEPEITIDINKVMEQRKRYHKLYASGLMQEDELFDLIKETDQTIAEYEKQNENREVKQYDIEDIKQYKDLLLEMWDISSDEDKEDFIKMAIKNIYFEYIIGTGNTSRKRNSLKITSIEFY

Int2 = target: T6, Int2 (Streptomyces scabiei 87.22); assay: as above
T6 chain: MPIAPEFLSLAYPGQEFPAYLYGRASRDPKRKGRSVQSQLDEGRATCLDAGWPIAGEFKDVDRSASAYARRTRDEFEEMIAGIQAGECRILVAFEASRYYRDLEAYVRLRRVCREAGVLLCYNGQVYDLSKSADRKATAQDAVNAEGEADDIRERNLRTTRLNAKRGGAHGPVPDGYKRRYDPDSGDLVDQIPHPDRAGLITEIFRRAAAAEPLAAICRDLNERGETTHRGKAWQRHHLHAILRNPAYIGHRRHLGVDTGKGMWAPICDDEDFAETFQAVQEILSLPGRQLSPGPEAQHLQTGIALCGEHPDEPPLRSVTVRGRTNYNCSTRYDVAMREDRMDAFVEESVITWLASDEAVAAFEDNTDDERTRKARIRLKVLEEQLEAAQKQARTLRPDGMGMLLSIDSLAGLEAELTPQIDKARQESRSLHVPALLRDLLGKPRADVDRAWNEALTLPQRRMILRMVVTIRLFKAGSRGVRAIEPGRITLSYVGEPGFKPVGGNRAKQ

B1: Int11 attB (dsDNA)
DNA 1: ATGGATTTTGCAGATTCCCAGATGCCCCTACAGAAAGAGGTACAAAACATTTATTGGAATTAATT
DNA 2: AATTAATTCCAATAAATGTTTTGTACCTCTTTCTGTAGGGGCATCTGGGAATCTGCAAAATCCAT
In the case of B1, the binding signal (Int11) is reported as 1.81 fraction of Bxb1.

B2: Int12 attB (dsDNA)
DNA 1: GTTCGTGGTAACTATGGGTGGTACAGGTGCCACATTAGTTGTACCATTTATGTTTATGTGGTTAAC
DNA 2: GTTAACCACATAAACATAAATGGTACAACTAATGTGGCACCTGTACCACCCATAGTTACCACGAAC
For B2, the binding signal (Int12) was 0.821 fraction of Bxb1.

B3: Int9 attB (dsDNA)
DNA 1: TTTATATTGCGAAAAATAATTGGCGAACGAGGTAACTGGATACCTCATCCGCCAATTAAAATTTG
DNA 2: CAAATTTTAATTGGCGGATGAGGTATCCAGTTACCTCGTTCGCCAATTATTTTTCGCAATATAAA
B3 was tested, and the binding signal (Int9) was 0.08 fraction of Bxb1.

B4: Int10 attB (dsDNA)
DNA 1: AGCACGCTGATAATCAGCAAGACCACCAACATTTCCACCAATGTAAAAGCTTTAACCTTAGC
DNA 2: GCTAAGGTTAAAGCTTTTACATTGGTGGAAATGTTGGTGGTCTTGCTGATTATCAGCGTGCT
B4 was tested, and the binding signal (Int10) was 5.49 fraction of Bxb1.

B5: Int3 attP (dsDNA)
DNA 1: ATGGATAAAAAAATACAGCGTTTTTCATGTACAACTATACTAGTTGTAGTGCCTAAATAATGCTT
DNA 2: AAGCATTATTTAGGCACTACAACTAGTATAGTTGTACATGAAAAACGCTGTATTTTTTTATCCAT
With B5 the binding signal (Int3) was 1.11 fraction of Bxb1.

B6: Int11 attP (dsDNA)
DNA 1: GTTTATATGTTTACTAATAAGACGCTCTCAACCCATAAAGTCTTATTAGTAAACATATTTCAACT
DNA 2: AGTTGAAATATGTTTACTAATAAGACTTTATGGGTTGAGAGCGTCTTATTAGTAAACATATAAAC
B6 was tested, and the binding signal (Int11) was 1.81 fraction of Bxb1.

B7: Int9 attP (dsDNA)
DNA 1: GTGGTTGTTTTTGTTGGAAGTGTGTATCAGGTATCTGCATAGTTATTCCGAACTTCCAATTA
DNA 2: TAATTGGAAGTTCGGAATAACTATGCAGATACCTGATACACACTTCCAACAAAAACAACCAC
For B7, the binding signal (Int9) was 0.08 fraction of Bxb1.

B8: Int8 attB (dsDNA)
DNA 1: CAATCATCAGATAACTATGGCGGCACGTGCATTAACCACGGTTGTATCCCGTCTAAAGTACTCGT
DNA 2: ACGAGTACTTTAGACGGGATACAACCGTGGTTAATGCACGTGCCGCCATAGTTATCTGATGATTG
With B8 the binding signal (Int8) was 0.068 fraction of Bxb1.

B9: Int3 attB (dsDNA)
DNA 1: GTTTGTAAAGGAGACTGATAATGGCATGTACAACTATACTCGTCGGTAAAAAGGCATCTTAT
DNA 2: ATAAGATGCCTTTTTACCGACGAGTATAGTTGTACATGCCATTATCAGTCTCCTTTACAAAC
For B9, the binding signal (Int3) was 1.11 fraction of Bxb1.

B10: Int10 attP (dsDNA)
DNA 1: GGAAAATATAAATAATTTTAGTAACCTACATCTCAATCAAGGATAGTAAAACTCTCACTCTT
DNA 2: AAGAGTGAGAGTTTTACTATCCTTGATTGAGATGTAGGTTACTAAAATTATTTATATTTTCC
B10 was tested, and the binding signal (Int10) was 5.49 fraction of Bxb1.

B11: Int2 attB (dsDNA)
DNA 1: GGACGGCGCAGAAGGGGAGTAGCTCTTCGCCGGACCGTCGACATACTGCTCAGCTCGTC
DNA 2: GACGAGCTGAGCAGTATGTCGACGGTCCGGCGAAGAGCTACTCCCCTTCTGCGCCGTCC
For B11, the binding signal (Int2) was 0.17 fraction of Bxb1.

B12: Int12 attP (dsDNA)
DNA 1: TTTTTGTATGTTAGTTGTGTCACTGGGTAGACCTAAATAGTGACACAACTGCTATTAAAATTTAA
DNA 2: TTAAATTTTAATAGCAGTTGTGTCACTATTTAGGTCTACCCAGTGACACAACTAACATACAAAAA
In the case of B12, the binding signal (Int12) is reported as 0.821 fraction of Bxb1.

B13: Int8 attP (dsDNA)
DNA 1: TTAATAAACTATGGAAGTATGTACAGTCTTGCAATGTTGAGTGAACAAACTTCCATAATAAAAT
DNA 2: ATTTTATTATGGAAGTTTGTTCACTCAACATTGCAAGACTGTACATACTTCCATAGTTTATTAA
B13 was tested, and the binding signal (Int8) was 0.068 fraction of Bxb1.

B14: Int2 attP (dsDNA)
DNA 1: GCTCATGTATGTGTCTACGCGAGATTCTCGCCCGAGAACTTCTGCAAGGCACTGCTCTTGGCT
DNA 2: AGCCAAGAGCAGTGCCTTGCAGAAGTTCTCGGGCGAGAATCTCGCGTAGACACATACATGAGC
In the case of B14, the binding signal (Int2) is reported as 0.17 fraction of Bxb1.
